From the supplement of paper PMC12042874
± gives the uncertainty stated by the source.

Assay: amyloid nucleation score (Sup35N fusion, yeast selection) (log enrichment); library NNK1; higher = more nucleation; inactive = no reads after selection
Procedure, shortened: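 DiMSum was used to calculate nucleation scores as log enrichment of output over input reads, centred on the mode score of non-aggregating sequences. Sequences with fewer than 100 input reads were not scored. Input and output came from Illumina sequencing of plasmid inserts in psi-negative yeast expressing peptides of 20 random codons fused to Sup35N, induced 24 hours with 100 μM copper sulfate and then grown 7 days at 30°C on medium lacking adenine and uracil.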

| Substance | amyloid nucleation score |
| --- | --- |
| FPWVCIVVCERTS | 3.41 ± 0.17 |
| GVRCRLLRIPFVSISRSGWR | 0.743 ± 0.58 |
| LFRFDYCLPGRFNRFWPDIS | 1.03 ± 0.18 |
| TFKRYI | 1.28 ± 0.56 |
| CLTSRQMMQKLMRYIKNDLG | -0.051 ± 0.32 |
| DHGGVVPSNPGYNMARSLRF | 0.465 ± 0.46 |
| CWYWDSPSVGFTAILYYLAG | 0.138 ± 0.57 |
| DTSNHEGE | -0.554 ± 1.7 |
| SGNTSPCCVSKFDLPHSTGK | 0.245 ± 0.3 |
| SFAFAAAYAGEEENRLLMRL | -0.478 ± 0.34 |
| RLCEFSSKGASL | -0.115 ± 1.1 |
| RRLQSNLSSCEASNPDTLRC | 0.774 ± 0.36 |
| GQAGGWTARGQSSDIDLGQR | -0.146 ± 0.63 |
| NSILFNGTQLD | -0.976 ± 0.35 |
| LFLSWDSYPSLSKRTV | 0.281 ± 0.42 |
| GARQHATVAREAATLCF | 0.094 ± 1.4 |
| YDFVIFLGHDACEIYCFLRS | 0.935 ± 0.56 |
| MLKILNSSFFDTIVYAYITC | 3.6 ± 0.081 |
| VLEYKD | -1.97 ± 2.4 |
| CPAWFFCIVKKYFKTVAQTV | 0.291 ± 0.48 |
| QYCAKSVSFRWCHLSRWLMP | 0.401 ± 0.71 |
| RYARWYTQCWTKQRVWRPLD | 0.984 ± 0.3 |

| Substance | amyloid nucleation score |
| --- | --- |
| MYIKRTGQTGWAVGGSRTPR | 1.11 ± 0.65 |
| GDNMDEEARWRLPVRFDRAS | -0.013 ± 1.2 |
| IWDASKVGSYAELHTLM | 0.744 ± 0.33 |
| AIVVKNDFTGSPRF | inactive |
| TGNGRWVDFFRYRYGLKSRS | inactive |
| KRYDLRLKMMTTPI | 1.29 ± 0.41 |
| GMVSIL | -0.278 ± 1.2 |
| QLSVVNFKEM | -0.219 ± 0.7 |
| SYWCLRAYLRLWLL | -0.164 ± 0.42 |
| SNTKIED | 0.508 ± 0.59 |
| FLMPCFMKVGFVREEPWWRR | 0.096 ± 0.78 |
| LYKEMTWRNWALSLKMSLRR | 0.146 ± 0.5 |
| YNRDRECWRIS | 1.17 ± 0.53 |
| SGGMFQVICLV | 0.263 ± 0.34 |
| GTTCGSLHRAWGLAKTGCNW | -0.388 ± 0.42 |
| FWVKVLY | -0.654 ± 0.37 |
| WLLTNPPLIVFTVRRNSRFS | -1.09 ± 1.9 |
| TWKLATCIWRSLF | -0.238 ± 0.21 |
| RCMDHCSLDIQVRVLCKVSV | -0.709 ± 0.66 |
| RINLYIMFNLLDSGVDLNS | 6.45 ± 0.071 |
| HYTLIESSNRSANNEPQVTH | 0.353 ± 0.88 |
| VGIPGGWIQNITFSSMKDFF | 4.9 ± 0.065 |

| Substance | amyloid nucleation score |
| --- | --- |
| LCDFKTSEVPSEGTFWSVLA | 0.181 ± 0.51 |
| MLVCILSVFDKNPR | 2.78 ± 0.11 |
| DRVWCHETKRSFYIMCKNNI | 0.052 ± 0.24 |
| LRYSIISLAANSKTADG | 0.663 ± 0.7 |
| TTQDCNLRD | -0.021 ± 0.34 |
| DLLFAVYYELEHGFERVAGR | 4.78 ± 0.081 |
| KWGLGFFDWKMKYHFRCYKC | 0.033 ± 0.56 |
| TGSMVFLMVVAGSCLFGLSE | 0.652 ± 0.24 |
| RHHCKTCASYCFRIFIAEMM | 0.216 ± 0.42 |
| VMWRFKSVTCI | -0.393 ± 0.33 |
| IFMRSAERGMRVLLEDDCRT | 0.256 ± 0.61 |
| NTSWGYFR | -0.426 ± 0.52 |
| LSIMVCVICSYMVKMVVTGI | inactive |
| NLWSGFLRFKFSCGRIDGIL | -0.622 ± 0.41 |
| RHSKMVQLRLSTYGVET | inactive |
| SHTHEHKFSSSRCGELNSEK | -0.902 ± 0.38 |
| CRSSSERSIFG | 0.439 ± 0.53 |
| YPNYFSVRFSNWLASTKFQI | inactive |
| VAISDDDVLVWMYFS | 0.154 ± 0.44 |
| RFFSGLIVHNLLCLCRPPNP | 6.58 ± 0.078 |
| AHSALVTRTYSINIYFVSVE | 1.51 ± 0.21 |
| TTTRVFS | 0.813 ± 0.81 |

| Substance | amyloid nucleation score |
| --- | --- |
| DVANRVVSSFLIC | -0.525 ± 0.45 |
| NRPHFKGNQCPQDIS | -0.217 ± 0.22 |
| YSSERTLLALVGT | -0.21 ± 0.51 |
| CRKFQWLSLM | -0.921 ± 1.7 |
| VFMSIRMWAFDLLYVSCGLA | -0.808 ± 0.42 |
| RCYSFRSHRRNFNIYVLSKW | inactive |
| RGVCSRDVWARLVELTAEMG | 0.459 ± 0.93 |
| QELPFRRSYNLSNCSDNWHS | inactive |
| EDCIWYVVGH | -2.18 ± 2.4 |
| RWDSRQGFSRASQVARRADS | -0.391 ± 0.39 |
| MRLIVNSFTVGYEPRISWYV | 1.22 ± 0.24 |
| FFFIN | -0.391 ± 0.47 |
| GGHYAVQNPMRVYAYGH | -0.667 ± 1 |
| SGCWT | 0.331 ± 0.8 |
| FNSTTTESLHAVAEGTMNPL | 0.671 ± 0.54 |
| FICGDLNCQQTSSFCFLDYS | 7.296 ± 0.051 |
| NVMNVIGGENWVSGFDCMGR | inactive |
| KYRVSLNFRWRFRLMISHNG | -0.002 ± 0.4 |
| VFKCVNFS | inactive |
| NALYSWAPLDCIMPRIVS | 0.299 ± 0.47 |
